Measured values published in article PMC5269676 (Scientific Reports, 2017).

T1: Kelch domain of Keap1
T1 construct: Cloned into pET-28a in frame with an N-terminal His tag and a TEV protease cleavage site; stored in 20 mM Tris pH 7.5, 5 mM DTT; source: E. coli BL21 (DE3), purified (Ni-NTA, His tag cut off, Ni-NTA flow-through, Superdex 75, if necessary Mono Q); not shown: His tag, N-terminal, cleaved
T1 chain: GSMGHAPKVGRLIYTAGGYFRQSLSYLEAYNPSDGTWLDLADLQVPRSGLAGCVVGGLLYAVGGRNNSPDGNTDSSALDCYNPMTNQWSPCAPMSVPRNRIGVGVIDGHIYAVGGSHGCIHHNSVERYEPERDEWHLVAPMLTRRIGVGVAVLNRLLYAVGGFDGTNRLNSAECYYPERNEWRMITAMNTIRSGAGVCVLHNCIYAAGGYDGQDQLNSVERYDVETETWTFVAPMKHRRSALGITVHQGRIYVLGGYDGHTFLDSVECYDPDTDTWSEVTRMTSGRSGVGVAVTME


Key:
Keap1 [1] = biological target: Keap1 (Homo sapiens)
Kelch domain of Keap1 = biological target: T1, Kelch domain of Keap1; experiment: SPR; Biacore competition assay; concentration of LS146-scFv varied, percent inhibition fitted to a variable slope model; what was immobilised is not told; conditions: both partners purified
Keap1 [2] = biological target: T2, Keap1 (Homo sapiens); experiment: not stated; potency of LS146-scFv against its Fab form (Supplementary Fig. S6)
T2 construct: Keap1, BTB-Kelch substrate adaptor protein; the crystallised construct is in PDB 5F72; source: recombinant, purified (procedures in Supplementary Methods)

Binder | binding result (Keap1 [1]) | further results
G55 (antibody, V domains shown) VH: EVQLVESGGGLIRPGGSLRLSCKGSGFIFENFGFGWVRQGPGKGLEWVSGTNWNGGDSRYGDSVKGRFTISRDNSNNFVYLQMNSLRPEDTAIYYCARGTDYTIDETGERYQGSGTFWYFDVWGRGTLVTVSS VL: EIVLTQSPDTLSLSPGERATLSCRASQSVHSRYFAWYQHKPGQPPRLLIYGGSTRATGIPNRFSAGGSGTQFTLTVNRLEAEDFAVYYCQQYGASPYTFGQGTKVEIR | binds | 
LS146-scFv (scFv, VH of LS146-scFv; (Gly4Ser)4 linker; VL of LS146-scFv; two residues between VL and the TEV site; also called scFv-LS146; source: CHO-S XE cells, transiently transfected, purified (HisTrap excel, His tag removed, HisTrap flow-through, Superdex 75); not shown: His10 (after a TEV protease cleavage site), C-terminal, cleaved) scFv: EVQLVESGGGLVQPGGSLRLSCAASGFAISASSIHWVRQAPGKCLEWVASIDPETGETLYAKSVAGRFTISADTSKNTAYLQMNSLRAEDTAVYYCARAYAGDGVYYADVWGQGTLVTVSSGGGGSGGGGSGGGGSGGGGSDIQMTQSPSSLSASVGDRVTITCRASQSVSSAVAWYQQKPGKAPKLLIYSASSLYSGVPSRFSGSRSGTDFTLTISSLQPEDFATYYCQQSYSFPSTFGCGTKVEIKRT |  | IC50 (Kelch domain of Keap1): 79 nM
LS146-scFv (scFv, V domains shown, VH of LS146; (Gly4Ser)4 linker, written out; VL of LS146; The His10 tag is cleavable by TEV protease; also called LS146 formatted as a single chain Fv; crystal LS146-scFv; source: CHO-S XE cells; purification in Supplementary Methods) VH: EVQLVESGGGLVQPGGSLRLSCAASGFAISASSIHWVRQAPGKCLEWVASIDPETGETLYAKSVAGRFTISADTSKNTAYLQMNSLRAEDTAVYYCARAYAGDGVYYADVWGQGTLVTVSS VL: DIQMTQSPSSLSASVGDRVTITCRASQSVSSAVAWYQQKPGKAPKLLIYSASSLYSGVPSRFSGSRSGTDFTLTISSLQPEDFATYYCQQSYSFPSTFGCGTKVEIK |  | fold lower potency than the Fab form (LS146 Fab) (Keap1 [2]): 3 fold

Continued, in another order:

binding result (Keap1 [1]) | Binder | further results
binds | G56 (antibody, V domains shown) VH: EVQLVESGGGLIRPGGSLRLSCKGSGFIFENFGFGWVRQGPGKGLEWVSGTNWNGGDSRYGDSVKGRFTISRDNSNNFVYLQMNSLRPEDTAIYYCARGTDYTIDETGERAQGSGTFWYFDVWGRGTLVTVSS VL: EIVLTQSPATLSVSPGERATLSCRASQNVHPRYFAWYQQKRGQSPRLLIHSGSTRAAGIADRFSGGGSGMHFTLTITRVEPEDFAVYFCQQYGGSPYTFGQGTRVELR | 
binds | G54 (antibody, V domains shown) VH: EVQLVESGGGLVQPGGSLRLSCAASGFAISASSIHWVRQAPGKGLEWVASISPETGETYYADSVAGRFTISADTSKNTAYLQMNSLRAEDTAVYYCARQGYAARSGAGFDYWGQGTLVTVSS VL: DIQMTQSPSSLSASVGDRVTITCRASQSVSSAVAWYQQKPGKAPKLLIYSASSLYSGVPSRFSGSRSGTDFTLTISSLQPEDFATYYCQQSYSFPSTFGQGTKVEIK | 
